In patent publication US20200216495A1 (ADRX, published 2020):
Read-outs that look alike come from different tables or passages of the source. Square brackets hold non-standard residues; d marks the D form. Ends that are not written are not given here.

Tests used:
[1] = biological target: T1, His-Tau40 P301L Tau fibrils (human); experiment: cell-based or functional assay
T1 chain: RLRIRW

[2] = biological target: T1, His-Tau40 P301L Tau fibrils; experiment: cell-based or functional assay

EC50, HEK cell assay (TauRD(P301S) split luciferase, seeded with tau fibrils) [1]: 1.7 µM
EC50, HEK cell assay (TauRD(P301S) split luciferase, seeded with tau fibrils) [2]: 2.3 µM
Binder: RRRRRRRRRRGGSGG[dW][dR][dL][dK][dV][dR][dW][dW] [RRRRRRRRRR-GGSGG-wrlkvrww]
